Laboratory results from US20250092147A1 (PEPMAB B V, published 2025).
“And” between values parts separate entries of the source, which are not always exact repeats. Equal entries are not always repeated.

What was measured:
[1] = target: T1, human CCR7 (human, UniProt P32248 25-378, sulfated tyrosine residues in position Y32 and Y41 (as the filing describes the N-terminal extracellular domain)); test: cell-based or functional assay
T1 sequence: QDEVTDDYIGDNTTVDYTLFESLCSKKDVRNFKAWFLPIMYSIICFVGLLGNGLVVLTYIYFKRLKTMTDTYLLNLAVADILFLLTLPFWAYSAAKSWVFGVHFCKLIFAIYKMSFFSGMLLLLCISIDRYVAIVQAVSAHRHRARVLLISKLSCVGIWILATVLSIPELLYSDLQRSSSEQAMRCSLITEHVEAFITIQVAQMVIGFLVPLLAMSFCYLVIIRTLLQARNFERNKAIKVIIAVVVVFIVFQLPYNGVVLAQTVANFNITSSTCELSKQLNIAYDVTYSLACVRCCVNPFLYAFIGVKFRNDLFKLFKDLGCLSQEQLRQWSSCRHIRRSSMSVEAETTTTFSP

[2] = target: T1, human CCR7; test: FACS (flow cytometry) on CLL and TPLL cells
Procedure: Binding of antibodies to membrane expressed CCR7 was determined by Fluorescence-activated cell sorting (FACS) by flow cytometry on three different chronic lymphocytic leukemia (CLL) samples and on three different T-cell Prolymphocytic leukaemia (TPLL) samples (data not shown). Appropriate controls (human isotype controls) were included to easily calculate the percentage of positive cells and/or the relative median fluorescence intensity (RMFI), obtained from the ratio MFI (sample)/MFI (control).

[3] = target: T2, sulfated antigen SYM1899 (human, N-terminal pyroGlu; Z denotes sulfated Tyrosine (two Z in (pyroGlu)DEVTDDZIGDNTTVDZTLFESLCSKKDVRNK)); test: ELISA, SYM1899 coated on the plate, 4 parameter logistics curve fit
T2 construct: also called immunogen SYM1899; synthetic antigen SYM1899
T2 peptide: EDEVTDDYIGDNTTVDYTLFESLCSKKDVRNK
Procedure: SEQ ID NO: 76). 100 ng/well SYM1899 was immobilized onto 96 well Maxisorp plates in coating buffer. Coating buffer was removed and 200 μl/well of block solution (3% w/v semi skim milk powder, PBS) was added and agitated 2 hours room temperature. Plate was washed six times with PBS-T (0.001% v/v Tween 20). […] 100 μl per well in triplicate of each antibody dilution was added to the plate in addition to a negative control of PBS and incubated 2 hours at room temperature with agitation. Plate was washed six times with PBS-T. 100 μl/well goat anti human HRP (Fc specific) (1:60,000 in PBS) was added and plates incubated for one hour agitated at room temperature. Plate was washed six times with PBS-T and once in PBS. 100 μl/well of TMB substrate solution was added and incubated at 37° C. for 10 minutes. 50 μl 1M HCl was added per well and the plate immediately read at 450 nm on a Biolise plate reader.

B1: humanized anti-CCR7 mAb 650 variant HC1 LC1 (antibody, V domains shown)
VH: EVQLLESGGGFVKPGGSLKLSCVVSGLTFRDFAMSWVRQTPEKRLVWVATISSGGFYTYYPDSVKGRFTISRDNVRNILYLQMSSLRSEDTAVYYCVRRAYRYDGTGDYSALDYWGTGTTVTVSS
VL: DIQMTQSPSSLSASVGDRVTITCRASQDIGPSLNWYQQKPGKAPKRLIYATSNLDSGVPSRFSGSGSGTDFTLTISSLQPEDFATYYCLQFASSPLTFGQGTKVEIK
- IC50 of inhibition of CCL19 induced CCR7 receptor internalization (PathHunter active internalization assay) [1]: 0.415 µg/ml and 2.8 nM
- IC50 of inhibition of CCL19 induced cAMP signalling (cAMP Secondary Messenger Pathway assay) [1]: 1.61 µg/ml and 10.7 nM
- IC50 of inhibition of CCL19 induced β-arrestin recruitment (PathHunter) [1]: 9.56 µg/ml and 63.7 nM

B2: control antibody 11-x (antibody, human IgG1, V domains shown)
VH: EVQLLESGGGFVKPGGSLKLSCVVSGLTFRDFAMSWVRQTPEKRLVWVATISSGGFYTYYPDSVKGRFTISRDNVRNILYLQMSSLRSEDTAVYYCARATTVVGTDFDYWGTGTTVTVSS
VL: DIQMTQSPSSLSASVGDRVTITCRASQDIGPSLNWYQQKPGKAPKRLIYATSNLDSGVPSRFSGSGSGTDFTLTISSLQPEDFATYYCLQFASSPLTFGQGTKVEIK
- binding result [2]: no binding

B3: humanized anti-CCR7 mAb 650 variant HC3 LC3 (antibody, V domains shown)
VH: EVQLVESGGGLVQPGGSLRLSCAVSGLTFRDFAMSWVRQAPGKGLEWVSTISSGGFYTYYPDSVKGRFTISRDNSKNTLYLQMNSLRAEDTASYYCVRRAYRYDGTGDYSALDYWGQGTLVTVSS
VL: DIQMTQSPSSLSASVGDRVTITCRASQDIGPSLNWLQQKPGKAPKSLIYATSNLDSGVPSKFSGSGSGTDFSLTISSLQPEDFATYYCLQFASSPLTFGQGTRLEIK
notes: Human Fc; See the note on VK3 under HC1 LC3
- EC50 [3]: > 100 nM

B4: humanized anti-CCR7 mAb 650 variant HC2 LC3 (antibody, V domains shown)
VH: EVQLVESGGGLVKPGGSLRLSCAAPGLTFRDFAMSWVRQAPGKGLEWVSTISSGGFYTYYPDSVKGRFTISRDNAANSLYLQMNSLRAEDTAVYYCVRRAYRYDGTGDYSALDYWGQGTLVTVSS
VL: DIQMTQSPSSLSASVGDRVTITCRASQDIGPSLNWLQQKPGKAPKSLIYATSNLDSGVPSKFSGSGSGTDFSLTISSLQPEDFATYYCLQFASSPLTFGQGTRLEIK
notes: as for B3
- EC50 [3]: > 100 nM

B5: humanized anti-CCR7 mAb 650 variant HC1 LC3 (antibody, V domains shown)
VH: EVQLLESGGGFVKPGGSLKLSCVVSGLTFRDFAMSWVRQTPEKRLVWVATISSGGFYTYYPDSVKGRFTISRDNVRNILYLQMSSLRSEDTAVYYCVRRAYRYDGTGDYSALDYWGTGTTVTVSS
VL: DIQMTQSPSSLSASVGDRVTITCRASQDIGPSLNWLQQKPGKAPKSLIYATSNLDSGVPSKFSGSGSGTDFSLTISSLQPEDFATYYCLQFASSPLTFGQGTRLEIK
notes: Human Fc
- EC50 [3]: > 100 nM
